This experiment concerns the target S蛋白, SARS-CoV-2原型毒株 (SARS-CoV-2 (prototype), UniProt P0DTC2 14-1273). The experiment can be described thus: cell-based or functional assay.

B1: L4.65单抗 (antibody, V domains shown)
VH: QITLKESGPTLVKPTQTLTLTCTFSGFSLSTSGVGVAWIRQPPGKALEWLALIYWDNDKRSSPSLNNRLTITKDTSKNQVVLTMTNMDPEDTATYYCAHFFSHYDSSNYYYGSWFDPWGQGTLVTVSS
VL: EIVLTQSPGTLSLSPGERATLSCRASQSFDSRYLGWYQQKSGQAPRLLIYGASSRATGIPDRFSGSGSGTDFTLTISRLEPEDFAVYYCQQFGDSPFTFGQGTKLEIKR
With B1, the “假病毒中和效果 IC50” value was 0.000709 µg/mL.

B2: CoV56单抗 (antibody, V domains shown)
VH: EVQLVESGGGVVQPGGSLRLSCAVSGFTFDDYAMHWVRQAPGKGLDWVSLISGDGSYTYYADSVKGRFTISRDSSKNSLYLQMNSLRTEDTALYYCAKAQTPTLWWLQDAFDIWGQGTMVTVSS
VL: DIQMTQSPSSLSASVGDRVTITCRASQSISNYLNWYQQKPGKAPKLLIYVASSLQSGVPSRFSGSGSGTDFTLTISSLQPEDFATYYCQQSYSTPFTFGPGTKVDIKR
Regarding B2, the “假病毒中和效果 IC50” value is 8.38 µg/mL.

(Values after patent CN117603358A (INST MICROBIOLOGY CAS; 3SBIO GROUP; SHANXI ADVANCED …, dated 2024).)
